Assay results taken from publication doi:10.1101/2024.07.29.605612 (bioRxiv, 2024).

Target: ribosomal protein uS14 (Escherichia coli (endogenous in K-12 …, UniProt P0AG59 1-101))
Experiment: cryo-EM structure

- binding result: binds
B1: catalytically inactive mutant of RNase I (H55F/H133F) (enzyme)
chain: LALQAKQYGDFDRYVLALSWQTGFCQSQHDRNRNERDECRLQTETTNKADFLTVFGLWPGLPKSVAARGVDERRWMRFGCATRPIPNLPEARASRMCSSPETGLSLETAAKLSEVMPGAGGRSCLERYEYAKFGACFGFDPDAYFGTMVRLNQEIKESEAGKFLADNYGKTVSRRDFDAAFAKSWGKENVKAVKLTCQGNPAYLTEIQISIKADAINAPLSANSFLPQPHPGNCGKTFVIDKAGY
